Results from the supplement of paper PMC9112550, “Optimization of the antimicrobial peptide Bac7 by deep mutational scanning” (BMC Biology, 2022).

Test system: Escherichia coli TOP10
Assay: shrunken log2 fold change of peptide-encoding DNA abundance (4.5 h post-induction vs induction); higher = less antimicrobial activity (less host growth inhibition)
Details: time post-induction: 4.5 h; library: site-saturation at positions 5, 18, 19, 20
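Further: peptides expressed intracellularly from a pBAD plasmid library in pooled LB shake-flask culture, induced with 0.3% L-arabinose, DNA abundance read by NGS, three biological replicates, DESeq2 with apeglm shrinkage.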

| Sequence | shrunken log2 fold change |
| --- | --- |
| RRIRERPPRLPRPRPRPNVAPRP | -0.186 |
| RRIRLRPPRLPRPRPRPLTYPRP | -0.448 |
| RRIRQRPPRLPRPRPRPELDPRP | 0.0346 |
| RRIRRRPPRLPRPRPRPVDPPRP | 0.253 |
| RRIRMRPPRLPRPRPRPNVIPRP | -0.117 |
| RRIRMRPPRLPRPRPRPHEDPRP | 0.465 |
| RRIRCRPPRLPRPRPRPPNYPRP | -0.376 |
| RRIRVRPPRLPRPRPRPQHWPRP | 0.171 |
| RRIRPRPPRLPRPRPRPVFRPRP | -0.332 |
| RRIRCRPPRLPRPRPRPNWAPRP | -0.336 |
| RRIRCRPPRLPRPRPRPGENPRP | 0.0862 |
| RRIRRRPPRLPRPRPRPPGSPRP | 0.413 |
| RRIRRRPPRLPRPRPRPCLDPRP | -0.167 |
| RRIRVRPPRLPRPRPRPHVSPRP | 0.108 |
| RRIRYRPPRLPRPRPRPKNNPRP | -1.02 |
| RRIRMRPPRLPRPRPRPAYRPRP | 0.196 |
| RRIRARPPRLPRPRPRPAWCPRP | 1.28 |
| RRIRVRPPRLPRPRPRPPWYPRP | 0.0253 |
| RRIRTRPPRLPRPRPRPQIRPRP | -0.312 |
| RRIRIRPPRLPRPRPRPWWYPRP | -0.179 |
| RRIRLRPPRLPRPRPRPRLMPRP | -0.197 |
| RRIRVRPPRLPRPRPRPYHDPRP | -0.182 |
| RRIRNRPPRLPRPRPRPLSFPRP | -0.387 |
| RRIRMRPPRLPRPRPRPCGRPRP | 1.09 |
| RRIRVRPPRLPRPRPRPIDMPRP | -0.0698 |

| Sequence | shrunken log2 fold change |
| --- | --- |
| RRIRGRPPRLPRPRPRPTDWPRP | 0.8 |
| RRIRWRPPRLPRPRPRPFHDPRP | -0.285 |
| RRIRWRPPRLPRPRPRPQGGPRP | -0.0626 |
| RRIRNRPPRLPRPRPRPKGIPRP | 0.0346 |
| RRIRVRPPRLPRPRPRPTIQPRP | -0.526 |
| RRIRMRPPRLPRPRPRPKSFPRP | -0.015 |
| RRIRKRPPRLPRPRPRPKEWPRP | 0.222 |
| RRIRYRPPRLPRPRPRPLWLPRP | 0.0113 |
| RRIRQRPPRLPRPRPRPNFRPRP | -0.0457 |
| RRIRGRPPRLPRPRPRPMVSPRP | 0.313 |
| RRIRDRPPRLPRPRPRPRRLPRP | 0.472 |
| RRIRKRPPRLPRPRPRPTPHPRP | 0.653 |
| RRIRCRPPRLPRPRPRPKICPRP | -0.0571 |
| RRIRCRPPRLPRPRPRPMFCPRP | -0.237 |
| RRIRRRPPRLPRPRPRPQQHPRP | -0.0327 |
| RRIRWRPPRLPRPRPRPAIAPRP | 0.242 |
| RRIRERPPRLPRPRPRPHAPPRP | -0.0944 |
| RRIRWRPPRLPRPRPRPLNCPRP | -0.0452 |
| RRIRMRPPRLPRPRPRPLHVPRP | -0.21 |
| RRIRVRPPRLPRPRPRPTVVPRP | 0.0028 |
| RRIRFRPPRLPRPRPRPYRGPRP | -0.384 |
| RRIRDRPPRLPRPRPRPKLYPRP | 0.0658 |
| RRIRDRPPRLPRPRPRPARMPRP | 0.584 |
| RRIRKRPPRLPRPRPRPMMAPRP | 0.255 |
| RRIRNRPPRLPRPRPRPEQHPRP | 0.0592 |

| Sequence | shrunken log2 fold change |
| --- | --- |
| RRIRCRPPRLPRPRPRPRYMPRP | -0.402 |
| RRIRLRPPRLPRPRPRPTDQPRP | 0.0347 |
| RRIRERPPRLPRPRPRPPDNPRP | 0.197 |
| RRIRVRPPRLPRPRPRPIKCPRP | -0.633 |
| RRIRIRPPRLPRPRPRPDFHPRP | -0.649 |
| RRIRYRPPRLPRPRPRPIGWPRP | 0.11 |
| RRIRQRPPRLPRPRPRPDSSPRP | 0.00797 |
| RRIRMRPPRLPRPRPRPHPKPRP | 0.0698 |
| RRIRTRPPRLPRPRPRPFQEPRP | 0.00783 |
| RRIRKRPPRLPRPRPRPRGAPRP | 0.891 |
| RRIRERPPRLPRPRPRPRIIPRP | 0.0824 |
| RRIRCRPPRLPRPRPRPVEYPRP | -0.0499 |
| RRIRIRPPRLPRPRPRPQETPRP | -0.0344 |
| RRIRIRPPRLPRPRPRPRWPPRP | 0.379 |
| RRIRFRPPRLPRPRPRPLCMPRP | -0.888 |
| RRIRRRPPRLPRPRPRPNCMPRP | 0.0934 |
| RRIRRRPPRLPRPRPRPATCPRP | 0.161 |
| RRIRCRPPRLPRPRPRPQVWPRP | -0.0474 |
| RRIRVRPPRLPRPRPRPTISPRP | -0.12 |
| RRIRCRPPRLPRPRPRPECAPRP | 0.543 |
| RRIRQRPPRLPRPRPRPSPTPRP | 0.292 |
| RRIRPRPPRLPRPRPRPVCWPRP | 0.533 |
| RRIRYRPPRLPRPRPRPGIEPRP | -0.276 |
| RRIRIRPPRLPRPRPRPCCIPRP | -2.25 |
| RRIRNRPPRLPRPRPRPFVQPRP | -0.225 |

| Sequence | shrunken log2 fold change |
| --- | --- |
| RRIRLRPPRLPRPRPRPKYEPRP | -0.0397 |
| RRIRPRPPRLPRPRPRPYPFPRP | -0.0133 |
| RRIRWRPPRLPRPRPRPWKHPRP | 0.0264 |
| RRIRYRPPRLPRPRPRPERCPRP | -0.12 |
| RRIRSRPPRLPRPRPRPDYFPRP | -0.133 |
| RRIRDRPPRLPRPRPRPHTKPRP | 0.0345 |
| RRIRHRPPRLPRPRPRPACPPRP | -0.0965 |
| RRIRMRPPRLPRPRPRPGYRPRP | 0.158 |
| RRIRQRPPRLPRPRPRPYCWPRP | -0.554 |
| RRIRDRPPRLPRPRPRPVREPRP | 0.929 |
| RRIRYRPPRLPRPRPRPMEPPRP | -0.0132 |
| RRIRKRPPRLPRPRPRPCFPPRP | 0.123 |
| RRIRPRPPRLPRPRPRPHIQPRP | -0.312 |
| RRIRQRPPRLPRPRPRPNNVPRP | -0.149 |
| RRIRKRPPRLPRPRPRPQYDPRP | -0.212 |
| RRIRCRPPRLPRPRPRPHDHPRP | -0.307 |
| RRIRIRPPRLPRPRPRPWSKPRP | -0.0876 |
| RRIRTRPPRLPRPRPRPPWWPRP | 0.928 |
| RRIRRRPPRLPRPRPRPPKPPRP | 0.824 |
| RRIRQRPPRLPRPRPRPHYTPRP | -0.509 |
| RRIRVRPPRLPRPRPRPEEGPRP | -0.01 |
| RRIRERPPRLPRPRPRPTMLPRP | 0.00422 |
| RRIRDRPPRLPRPRPRPGELPRP | 0.684 |
| RRIRMRPPRLPRPRPRPHWGPRP | 0.12 |
| RRIRARPPRLPRPRPRPQHWPRP | 0.0917 |

| Sequence | shrunken log2 fold change |
| --- | --- |
| RRIRTRPPRLPRPRPRPHKVPRP | -0.00818 |
| RRIRSRPPRLPRPRPRPWLRPRP | -0.241 |
| RRIRLRPPRLPRPRPRPPCTPRP | 0.036 |
| RRIRQRPPRLPRPRPRPENEPRP | 0.0608 |
| RRIRKRPPRLPRPRPRPDIQPRP | 0.867 |
| RRIRARPPRLPRPRPRPSPHPRP | 0.187 |
| RRIRFRPPRLPRPRPRPKYLPRP | -0.451 |
| RRIRWRPPRLPRPRPRPRLKPRP | 0.689 |
| RRIRIRPPRLPRPRPRPMRGPRP | 1.32 |
| RRIRSRPPRLPRPRPRPNVFPRP | -0.075 |
| RRIRSRPPRLPRPRPRPAYLPRP | -0.731 |
| RRIRGRPPRLPRPRPRPYTGPRP | -0.707 |
| RRIRWRPPRLPRPRPRPAGSPRP | -0.176 |
| RRIRFRPPRLPRPRPRPFTWPRP | -0.816 |
| RRIRHRPPRLPRPRPRPPNSPRP | -0.201 |
| RRIRWRPPRLPRPRPRPSDFPRP | 0.0215 |
| RRIRTRPPRLPRPRPRPWQDPRP | -0.326 |
| RRIRWRPPRLPRPRPRPHSKPRP | 1.84 |
| RRIRCRPPRLPRPRPRPKHWPRP | 0.00902 |
| RRIRYRPPRLPRPRPRPMHFPRP | -0.00783 |
| RRIRMRPPRLPRPRPRPQNSPRP | -0.0933 |
| RRIRDRPPRLPRPRPRPNFHPRP | -0.0585 |
| RRIRHRPPRLPRPRPRPGEMPRP | 0.257 |
| RRIRRRPPRLPRPRPRPPQPPRP | 1.26 |
| RRIRPRPPRLPRPRPRPQQGPRP | 0.14 |

| Sequence | shrunken log2 fold change |
| --- | --- |
| RRIRPRPPRLPRPRPRPASCPRP | 0.186 |
| RRIRERPPRLPRPRPRPPKPPRP | 0.122 |
| RRIRNRPPRLPRPRPRPIEVPRP | 0.0112 |
| RRIRVRPPRLPRPRPRPGPAPRP | 0.407 |
| RRIRLRPPRLPRPRPRPFCNPRP | -0.245 |
| RRIRKRPPRLPRPRPRPKAHPRP | 0.242 |
| RRIRPRPPRLPRPRPRPSCCPRP | -0.0575 |
| RRIRRRPPRLPRPRPRPRAYPRP | -0.0105 |
| RRIRMRPPRLPRPRPRPTFGPRP | 0.374 |
| RRIRNRPPRLPRPRPRPQHKPRP | -0.155 |
| RRIRVRPPRLPRPRPRPEPTPRP | 0.0442 |
| RRIRLRPPRLPRPRPRPMSQPRP | -0.219 |
| RRIRRRPPRLPRPRPRPMRNPRP | 0.959 |
| RRIRRRPPRLPRPRPRPNVDPRP | -0.125 |
| RRIRARPPRLPRPRPRPPEGPRP | 0.783 |
| RRIRCRPPRLPRPRPRPKKHPRP | -0.217 |
| RRIRFRPPRLPRPRPRPQFIPRP | -0.141 |
| RRIRGRPPRLPRPRPRPEEQPRP | -0.00213 |
| RRIRMRPPRLPRPRPRPVPSPRP | 0.588 |
| RRIRHRPPRLPRPRPRPIDQPRP | 0.0834 |
| RRIRGRPPRLPRPRPRPMEMPRP | 0.756 |
| RRIRKRPPRLPRPRPRPDCPPRP | 0.178 |
| RRIRERPPRLPRPRPRPHHSPRP | -0.603 |
| RRIRKRPPRLPRPRPRPALYPRP | 0.453 |
| RRIRARPPRLPRPRPRPNAMPRP | 0.272 |
